PMC7373347 (Current protocols in cell biology, 2020)
Read-outs that look alike come from different tables or passages of the source.

What was measured:
SEC [1] = target: the molecule itself; assay: SEC
SEC [2] = target: the molecule itself; assay: SEC; remark: listed apart in the source

B1: human DHHC15 (Palmitoyl Acyl Transferase, hDHHC15) fused to mVenus (enzyme, UniProt Q96MV8 1-337, looked up)
chain: MRRGWKMALSGGLRCCRRVLSWVPVLVIVLVVLWSYYAYVFELCLVTVLSPAEKVIYLILYHAIFVFFTWTYWKSIFTLPQQPNQKFHLSYTDKERYENEERPEVQKQMLVDMAKKLPVYTRTGSGAVRFCDRCHLIKPDRCHHCSVCAMCVLKMDHHCPWVNNCIGFSNYKFFLQFLAYSVLYCLYIATTVFSYFIKYWRGELPSVRSKFHVLFLLFVACMFFVSLVILFGYHCWLVSRNKTTLEAFCTPVFTSGPEKNGFNLGFIKNIQQVFGDKKKFWLIPIGSSPGDGHSFPMRSMNESQNPLLANEETWEDNEDDNQDYPEGSSSLAVETET
stoichiometry N (SEC [1]): 2

B2: human DHHC15 (Palmitoyl Acyl Transferase, hDHHC15), purified, tag cleaved (enzyme, UniProt Q96MV8 1-337, looked up)
chain: MRRGWKMALSGGLRCCRRVLSWVPVLVIVLVVLWSYYAYVFELCLVTVLSPAEKVIYLILYHAIFVFFTWTYWKSIFTLPQQPNQKFHLSYTDKERYENEERPEVQKQMLVDMAKKLPVYTRTGSGAVRFCDRCHLIKPDRCHHCSVCAMCVLKMDHHCPWVNNCIGFSNYKFFLQFLAYSVLYCLYIATTVFSYFIKYWRGELPSVRSKFHVLFLLFVACMFFVSLVILFGYHCWLVSRNKTTLEAFCTPVFTSGPEKNGFNLGFIKNIQQVFGDKKKFWLIPIGSSPGDGHSFPMRSMNESQNPLLANEETWEDNEDDNQDYPEGSSSLAVETET
stoichiometry N (SEC [2]): 2
